The supplement of paper PMC9112550, “Optimization of the antimicrobial peptide Bac7 by deep mutational scanning” (BMC Biology, 2022)

tested on: Escherichia coli TOP10; test: shrunken log2 fold change of peptide-encoding DNA abundance (4.5 h post-induction vs induction); higher = less antimicrobial activity (less host growth inhibition); settings: time post-induction: 4.5 h; library: site-saturation at positions 5, 18, 19, 20
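Also: peptides expressed intracellularly from a pBAD plasmid library in pooled LB shake-flask culture, induced with 0.3% L-arabinose, DNA abundance read by NGS, three biological replicates, DESeq2 with apeglm shrinkage.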

Sequence | shrunken log2 fold change
RRIRRRPPRLPRPRPRPYVAPRP | -0.361
RRIRNRPPRLPRPRPRPMHNPRP | -0.286
RRIRERPPRLPRPRPRPAFCPRP | -0.21
RRIRCRPPRLPRPRPRPQPWPRP | 0.125
RRIRARPPRLPRPRPRPSDTPRP | -0.339
RRIRDRPPRLPRPRPRPDKDPRP | 0.0428
RRIRDRPPRLPRPRPRPIEDPRP | -0.0411
RRIRSRPPRLPRPRPRPEQDPRP | 0.206
RRIRSRPPRLPRPRPRPMFVPRP | -0.0773
RRIRSRPPRLPRPRPRPTECPRP | -0.00271
RRIRARPPRLPRPRPRPHILPRP | -0.207
RRIRGRPPRLPRPRPRPDRNPRP | 0.0753
RRIRLRPPRLPRPRPRPHWAPRP | -0.177
RRIRIRPPRLPRPRPRPMRPPRP | 0.194
RRIRTRPPRLPRPRPRPSVGPRP | -0.055
RRIRARPPRLPRPRPRPTVTPRP | 0.707
RRIRKRPPRLPRPRPRPVIMPRP | 0.137
RRIRFRPPRLPRPRPRPETRPRP | 0.159
RRIRFRPPRLPRPRPRPRVTPRP | 0.42
RRIRLRPPRLPRPRPRPEYYPRP | -0.0599
RRIRWRPPRLPRPRPRPRDWPRP | 0.958
RRIRHRPPRLPRPRPRPWDGPRP | -0.0969
RRIRDRPPRLPRPRPRPVEPPRP | 0.0157
RRIRSRPPRLPRPRPRPRCKPRP | -0.134
RRIRWRPPRLPRPRPRPVRFPRP | 0.0694

Sequence | shrunken log2 fold change
RRIRIRPPRLPRPRPRPLPIPRP | -0.0341
RRIRQRPPRLPRPRPRPCHAPRP | -0.126
RRIRMRPPRLPRPRPRPDGVPRP | 0.0632
RRIRKRPPRLPRPRPRPHINPRP | -0.124
RRIRKRPPRLPRPRPRPMRTPRP | 3.66
RRIRNRPPRLPRPRPRPAYRPRP | 0.105
RRIRARPPRLPRPRPRPYFAPRP | -0.201
RRIRMRPPRLPRPRPRPHGIPRP | 0.0295
RRIRYRPPRLPRPRPRPDPHPRP | -0.356
RRIRVRPPRLPRPRPRPDFAPRP | 0.147
RRIRCRPPRLPRPRPRPYAHPRP | -0.189
RRIRSRPPRLPRPRPRPLHHPRP | -0.465
RRIRDRPPRLPRPRPRPRFEPRP | 0.0618
RRIRHRPPRLPRPRPRPWGSPRP | -0.356
RRIRIRPPRLPRPRPRPCSDPRP | -0.0062
RRIRARPPRLPRPRPRPVMFPRP | 0.283
RRIRPRPPRLPRPRPRPRIHPRP | -0.00548
RRIRTRPPRLPRPRPRPKHHPRP | -0.263
RRIRYRPPRLPRPRPRPFKHPRP | -0.349
RRIRPRPPRLPRPRPRPGTNPRP | 1.46
RRIRCRPPRLPRPRPRPLEDPRP | 0.0306
RRIRLRPPRLPRPRPRPMHLPRP | -0.0248
RRIRHRPPRLPRPRPRPDSVPRP | -0.117
RRIRTRPPRLPRPRPRPTMTPRP | -0.0413
RRIRPRPPRLPRPRPRPLVWPRP | 0.412

Sequence | shrunken log2 fold change
RRIRWRPPRLPRPRPRPEDKPRP | -0.028
RRIRWRPPRLPRPRPRPYDSPRP | -0.377
RRIRSRPPRLPRPRPRPVSKPRP | 0.236
RRIRARPPRLPRPRPRPQTGPRP | 0.242
RRIRWRPPRLPRPRPRPTSYPRP | -0.103
RRIRNRPPRLPRPRPRPGPAPRP | 0.627
RRIRCRPPRLPRPRPRPNICPRP | -0.488
RRIRCRPPRLPRPRPRPYWKPRP | -0.737
RRIRWRPPRLPRPRPRPKKAPRP | 0.149
RRIRKRPPRLPRPRPRPREEPRP | 1.2
RRIRQRPPRLPRPRPRPCCDPRP | -0.0081
RRIRPRPPRLPRPRPRPDRTPRP | -0.25
RRIRVRPPRLPRPRPRPSAQPRP | 0.0391
RRIRTRPPRLPRPRPRPESKPRP | 0.214
RRIRFRPPRLPRPRPRPWSTPRP | -0.0601
RRIRIRPPRLPRPRPRPKLVPRP | 0.116
RRIRNRPPRLPRPRPRPKEVPRP | 0.0999
RRIRLRPPRLPRPRPRPFNFPRP | -0.855
RRIRIRPPRLPRPRPRPLDNPRP | 0.0097
RRIRYRPPRLPRPRPRPRGNPRP | -0.0138
RRIRNRPPRLPRPRPRPGSAPRP | 0.025
RRIRIRPPRLPRPRPRPQQEPRP | -0.056
RRIRYRPPRLPRPRPRPCWTPRP | -0.374
RRIRDRPPRLPRPRPRPITTPRP | 0.0735
RRIRYRPPRLPRPRPRPKPIPRP | 0.0874

Sequence | shrunken log2 fold change
RRIRNRPPRLPRPRPRPCCNPRP | -0.432
RRIRQRPPRLPRPRPRPNEAPRP | -0.0868
RRIRPRPPRLPRPRPRPYGQPRP | -0.169
RRIRCRPPRLPRPRPRPSNPPRP | 0.442
RRIRIRPPRLPRPRPRPYPSPRP | -0.00978
RRIRNRPPRLPRPRPRPSGGPRP | 0.0638
RRIRDRPPRLPRPRPRPFRRPRP | 0.0456
RRIRCRPPRLPRPRPRPAMQPRP | 0.0643
RRIRCRPPRLPRPRPRPALLPRP | 0.292
RRIRQRPPRLPRPRPRPTGGPRP | 0.0146
RRIRRRPPRLPRPRPRPEMDPRP | 0.186
RRIRPRPPRLPRPRPRPAVWPRP | 0.602
RRIRPRPPRLPRPRPRPFLQPRP | -0.207
RRIRNRPPRLPRPRPRPPWWPRP | 0.788
RRIRARPPRLPRPRPRPYIGPRP | 0.00388
RRIRSRPPRLPRPRPRPEILPRP | -0.0652
RRIRDRPPRLPRPRPRPNFAPRP | 0.605
RRIRMRPPRLPRPRPRPCWVPRP | 0.827
RRIRWRPPRLPRPRPRPSIDPRP | 0.452
RRIRSRPPRLPRPRPRPMMVPRP | -0.203
RRIRYRPPRLPRPRPRPHQQPRP | -0.0439
RRIRDRPPRLPRPRPRPCHVPRP | -0.0466
RRIRARPPRLPRPRPRPQYNPRP | -0.334
RRIRDRPPRLPRPRPRPNNEPRP | -0.526
RRIRMRPPRLPRPRPRPCMEPRP | 0.112

Sequence | shrunken log2 fold change
RRIRPRPPRLPRPRPRPTRTPRP | 0.508
RRIRVRPPRLPRPRPRPFDMPRP | -0.16
RRIRTRPPRLPRPRPRPKMMPRP | 0.332
RRIRHRPPRLPRPRPRPMEHPRP | -0.337
RRIRDRPPRLPRPRPRPFEFPRP | 0.0215
RRIRTRPPRLPRPRPRPFPSPRP | 0.0745
RRIRCRPPRLPRPRPRPAYHPRP | -0.436
RRIRSRPPRLPRPRPRPARIPRP | 0.0694
RRIRVRPPRLPRPRPRPWTSPRP | -0.329
RRIRWRPPRLPRPRPRPVKIPRP | -0.142
RRIRHRPPRLPRPRPRPKCNPRP | -0.00178
RRIRLRPPRLPRPRPRPCWIPRP | -0.241
RRIRHRPPRLPRPRPRPTDAPRP | 0.0615
RRIRHRPPRLPRPRPRPNGWPRP | 0.42
RRIRCRPPRLPRPRPRPGQDPRP | -0.0365
RRIRERPPRLPRPRPRPEFGPRP | -0.171
RRIRFRPPRLPRPRPRPHMSPRP | 0.0344
RRIRFRPPRLPRPRPRPTIIPRP | -0.66
RRIRIRPPRLPRPRPRPEPTPRP | 0.659
RRIRRRPPRLPRPRPRPDHPPRP | 0.0778
RRIRYRPPRLPRPRPRPKVGPRP | 0.0316
RRIRMRPPRLPRPRPRPCCVPRP | 0.166
RRIRWRPPRLPRPRPRPIFFPRP | 0.125
RRIRSRPPRLPRPRPRPSQRPRP | -0.0585
RRIRHRPPRLPRPRPRPVNDPRP | -0.0193

Sequence | shrunken log2 fold change
RRIRKRPPRLPRPRPRPTSFPRP | -0.044
RRIRDRPPRLPRPRPRPGTSPRP | -0.0025
RRIRSRPPRLPRPRPRPWAAPRP | 0.327
RRIRRRPPRLPRPRPRPIQVPRP | -0.0268
RRIRNRPPRLPRPRPRPTGTPRP | 0.0526
RRIRHRPPRLPRPRPRPVRTPRP | 0.314
RRIRFRPPRLPRPRPRPLKEPRP | -0.273
RRIRFRPPRLPRPRPRPQVHPRP | -0.262
RRIRKRPPRLPRPRPRPMFTPRP | -0.0707
RRIRWRPPRLPRPRPRPVMHPRP | -0.119
RRIRIRPPRLPRPRPRPIIHPRP | -0.667
RRIRFRPPRLPRPRPRPCYTPRP | -0.239
RRIRTRPPRLPRPRPRPADQPRP | -0.0202
RRIRRRPPRLPRPRPRPHSIPRP | 0.052
RRIRIRPPRLPRPRPRPADEPRP | -0.08
RRIRNRPPRLPRPRPRPHKCPRP | -0.0755
RRIRERPPRLPRPRPRPRYNPRP | -0.672
RRIRDRPPRLPRPRPRPDYFPRP | -0.052
RRIRVRPPRLPRPRPRPDGCPRP | 0.101
RRIRFRPPRLPRPRPRPTGDPRP | 0.127
RRIRERPPRLPRPRPRPRWFPRP | 0.0416
RRIRERPPRLPRPRPRPCPLPRP | -0.265
RRIRLRPPRLPRPRPRPGARPRP | 0.369
RRIRRRPPRLPRPRPRPDSTPRP | 0.187
RRIRMRPPRLPRPRPRPEWDPRP | 3.48
